Assay results from publication PMC11480844 (2024).

B1: H2-Kb / Ed10 (parent complex)
chain 1: GEQVEQRPPHLSVREGDSAFIICTYTDSATAYFYWYKQEPGAGLQLLMSVFSNVDRKEEQGLTVLLNKKDKRLSLNLTAAHPGDSAVYFCAVRGTGYQNFYFGKGTSLTVIP
chain 2: AQTIHQWPVAEIKAVGSPLSLGCTIKGKSSPNLYWYWQATGGTLQQLFYSITVGQVESVVQLNLSASRPKDDQFILSTEKLLLSHSGFYLCAWSPGYEQYFGPGTRLTVL
chain 3: not shown
chain 4: IQKTPQIQVYSRHPPENGKPNILNCYVTQFHPPHIEIQMLKNGKKIPKVEMSDMSFSKDWSFYILAHTEFTPTETDTYACRVKHDSMAEPKTVYWDRDM
chain 5: SIINFEKL
B2: H2-Kb / Ed45 (parent complex)
chain 1: GEQVEQRPPHLSVREGDSAVIICTYTDPNSYYFFWYKQEPGAGLQLLMKVFSSTEINEGQGFTVLLNKKDKQLSLNLTAAHPGDSAVYFCAVSGTNAYKVIFGKGTHLHVLP
chain 2: EAAVTQSPRSKVAVTGGKVTLSCHQTNNHDYMYWYRQDTGHGLRLIHYSYVADSTEKGDIPDGYKASRPSQENFSLILELASLSQTAVYFCASARGFQDTQYFGPGTRLLVL
chain 3: not shown
chain 4: B1 chain 4
chain 5: SIINFEKL

Variants of: B1
Experiment: % of reporter cells activated (NFAT-GFP), raw
Also: test concentration or dose not given here.

Row | Variant | ratio to parent
1 | chain 5 E6S | 0.0168
2 | chain 5 S1H | 1.01
3 | chain 5 E6G | 0.824
4 | chain 5 S1W | 0.717

Variants of: B2
Experiment: % of reporter cells activated (NFAT-GFP), raw

Row | Variant | ratio to parent
5 | chain 5 E6Y | 0.198
6 | chain 5 E6S | 0.801
7 | chain 5 F5A | 0.77
8 | chain 5 L8E | 1.52
9 | chain 5 S1A | 0.0786
10 | chain 5 E6V | 0.148
11 | chain 5 S1I | 0.0549
12 | chain 5 F5C | 1.61
13 | chain 5 F5N | 1.23
14 | chain 5 I2F | 1.21
15 | chain 5 I3R | 2.47
16 | chain 5 I2P | 1.32
17 | chain 5 L8M | 1.65
18 | chain 5 I2H | 1.61
19 | chain 5 I2T | 1.23
20 | chain 5 L8I | 1.62
21 | chain 5 I3A | 2.14
22 | chain 5 N4T | 0.0812
23 | chain 5 S1G | 0.388
24 | chain 5 I2A | 1.32
25 | chain 5 K7F | 0.418
26 | chain 5 I2K | 1.83
27 | chain 5 K7A | 0.925
28 | chain 5 L8P | 1.68
29 | chain 5 F5E | 1.34

Row | Variant | ratio to parent
30 | chain 5 L8W | 1.7
31 | chain 5 E6C | 0.258
32 | chain 5 I2L | 2.14
33 | chain 5 K7L | 0.569
34 | chain 5 E6M | 0.312
35 | chain 5 S1N | 0.0722
36 | chain 5 I3H | 2.02
37 | chain 5 F5V | 0.617
38 | chain 5 E6P | 1.12
39 | chain 5 S1T | 0.483
40 | chain 5 N4K | 1.07
41 | chain 5 N4W | 0.125
42 | chain 5 F5R | 1.73
43 | chain 5 F5S | 1.09
44 | chain 5 I2M | 2.11
45 | chain 5 I3S | 1.96
46 | chain 5 I3M | 2.2
47 | chain 5 S1R | 0.648
48 | chain 5 L8D | 1.52
49 | chain 5 N4R | 0.533
50 | chain 5 K7W | 1.18
51 | chain 5 L8S | 1.53
52 | chain 5 N4A | 0.0797
53 | chain 5 K7Q | 0.193
54 | chain 5 K7C | 0.0944

Row | Variant | ratio to parent
55 | chain 5 I3N | 1.85
56 | chain 5 L8G | 1.57
57 | chain 5 L8A | 1.77
58 | chain 5 I2D | 1.34
59 | chain 5 E6K | 0.861
60 | chain 5 K7E | 0.0609
61 | chain 5 I2R | 1.63
62 | chain 5 N4H | 0.668
63 | chain 5 K7N | 0.639
64 | chain 5 L8Y | 1.85
65 | chain 5 F5I | 0.389
66 | chain 5 E6A | 1.48
67 | chain 5 I2V | 1.48
68 | chain 5 S1Q | 0.331
69 | chain 5 I2C | 1.39
70 | chain 5 I3V | 2.18
71 | chain 5 E6H | 0.541
72 | chain 5 L8K | 1.87
73 | chain 5 N4M | 0.0786
74 | chain 5 E6L | 0.26
75 | chain 5 I3K | 2.08
76 | chain 5 N4D | 0.241
77 | chain 5 F5Y | 1.63
78 | chain 5 I2Y | 1.75
79 | chain 5 K7R | 2.06

Row | Variant | ratio to parent
80 | chain 5 I2N | 1.33
81 | chain 5 S1H | 0.638
82 | chain 5 N4E | 1.11
83 | chain 5 L8R | 1.77
84 | chain 5 E6I | 0.155
85 | chain 5 F5K | 1.19
86 | chain 5 I3G | 1.87
87 | chain 5 S1C | 0.234
88 | chain 5 S1V | 0.0654
89 | chain 5 K7Y | 1.03
90 | chain 5 E6W | 0.317
91 | chain 5 F5H | 1.28
92 | chain 5 E6Q | 0.738
93 | chain 5 I2E | 1.97
94 | chain 5 I2Q | 1.91
95 | chain 5 N4F | 0.261
96 | chain 5 F5M | 0.797
97 | chain 5 K7P | 0.891
98 | chain 5 K7M | 1.21
99 | chain 5 E6G | 0.715
100 | chain 5 S1P | 0.0861
101 | chain 5 L8H | 1.66
102 | chain 5 I2G | 1.62
103 | chain 5 K7V | 0.895
104 | chain 5 S1E | 0.177

Row | Variant | ratio to parent
105 | chain 5 N4C | 0.183
106 | chain 5 I3Q | 2.26
107 | chain 5 N4G | 1.18
108 | chain 5 F5G | 0.495
109 | chain 5 L8V | 1.43
110 | chain 5 E6F | 0.188
111 | chain 5 I3F | 0.726
112 | chain 5 I3Y | 0.537
113 | chain 5 L8C | 1.72
114 | chain 5 I3W | 1.57
115 | chain 5 F5P | 1
116 | chain 5 K7T | 0.253
117 | chain 5 F5D | 1.54
118 | chain 5 E6D | 0.542
119 | chain 5 F5W | 2.33
120 | chain 5 I3D | 2.15
121 | chain 5 I3L | 1.61
122 | chain 5 K7G | 0.872
123 | chain 5 E6R | 0.0752
124 | chain 5 L8F | 1.79
125 | chain 5 N4Q | 0.0624
126 | chain 5 N4S | 0.0823
127 | chain 5 F5T | 0.936
128 | chain 5 N4Y | 0.0695
129 | chain 5 I3E | 2.17

Row | Variant | ratio to parent
130 | chain 5 N4V | 0.0865
131 | chain 5 S1W | 0.347
132 | chain 5 I3C | 1.81
133 | chain 5 L8N | 1.6
134 | chain 5 F5Q | 0.947
135 | chain 5 K7H | 1.25
136 | chain 5 I2W | 1.68
137 | chain 5 L8T | 1.72
138 | chain 5 I3P | 2.34
139 | chain 5 I2S | 1.32
140 | chain 5 N4P | 0.0883
141 | chain 5 S1Y | 0.775
142 | chain 5 S1M | 0.0805
143 | chain 5 K7D | 0.247
144 | chain 5 K7I | 0.349
145 | chain 5 E6N | 1.11
146 | chain 5 I3T | 1.86
147 | chain 5 N4L | 1.34
148 | chain 5 S1D | 0.424
149 | chain 5 S1K | 0.191
150 | chain 5 S1F | 0.0609
